Reference: the DeepSol protein solubility set

Assay: soluble on expression in E. coli; label from the status in PepcDB or PDB records

Row | Sequence | soluble on expression in E. coli
1 | MSLAKLNMNNEIKKVEQRLEKAIKSKDSVLEQASLHLLSSGGKRVRPAFVILSSQFGKDEQTSEQTYQVAVALELIHMATLVHDDVIDKSDKRRGKLTISKKWDQTTAILTGNFLLALGLEHLMAVKDNRVHQLISESIVDVCRGELFQFQDQFNSQQTIINYLRRINRKTALLIQISTEVGAITSQSDKETVRKLKMIGHYIGMSFQIIDDVLDFTSTEKKLGKPVGSDLLNGHITLPILLEMRKNPDFKLKIEQLRRDSERKEFEECIQIIRKSDSIDEAKAVSSKYLSKALNLISELPDGHPKSLLLSLTKKMGSRNTEGHHHHHH | soluble
2 | MGSDKIHHHHHHMSLPLYQQISDDLKQKIVTKTFKSGDQLPTEKELSETYSVSRITAKRALTELEQLGLVSRTRGKGTFVQELNKNHTKLLKRVLFIIPFEGMSFGDFTQGLVPALKVENTTVFITYESYLKENTADDIKENFDGLIYYPMYTEDYLDILLELSLQNFPVVLLDKQIYDLGFPCVSSDNFNGGEQAAQALLNLGHKRIAFVASNDTHHPQTTRNRYLGYVKVLKEQGIKFHTTLDDSLYTESSVLELIHNEKVTGLICENDLVALQTMKTLQDSHFSVPNDISIIGFDDIQAASLSNPPLTTIAQDFIGMGRIAGELLLDWIKSGQTPKDVKVPINLIKRKTTEELK | not soluble
3 | MRRIAIVGGGQAGLPLAFGLLDKGYEVTVVSNRTPDDIRRGKVMSSQCMFDPALQIERELGINGWEADCPPVEGIGFAVPHPEQAGAKAIEWSARLDRPAQSVDQRVKMPAWLEQVQARGGRLLLQDAGIAELEALAQSHDLVILAAGKGEVVKLFERDAARSPFDKPQRALALTYVHGLEPAPDYSRVAFNLIPGVGEYFVFPALTLSGPCDIMVFEGVPGGPLDCWRDVRTPQEHLAASRRFLQTYLPWEADRARNVELTDDKGILAGAFAPTVRKPVMTLPSGRLVFGLGDAVVTNDPITGQGANNATKACKVYLDAILARGEQPYTRDWMEATFEQFWDYAQWVVQWTNSLLTPPPPHILGLLGTAEQAPSLASTIANGFNHPPSYFPWWADAQACEGFIAQHQRTPATATALEHHHHHH | not soluble
4 | MAGDPMNSRMKIKKAYEYMKSFHQHDTTGHDIAHVERVYNNACYIAKRENITDTLVIELSSLLHDTVDSKLTDEILAYDQLKQFLSTLDLSSEISQQVLYIIKHMSYRAGKNNHVKLSIDGEIVRDADRLDAIGAIGIARTFQFSGHFGEPMWTETKLSNEELHTSLVEELDNSAIKHFYEKLFKLKDLMHTPTAKKLAEERHQFMIQYLKQFMSEWNFNKELEHHHHHH | soluble
5 | MTNNQTLDILLDVYAYNHAFRIAKALPNIPKTALYLLEMLKERRELNLAFLAEHAAENRTIEDQYHCSLWLNQSLEDEQIANYILDLEVKVKNGAIIDFVRSVSPILYRLFLRLITSEIPNFKAYIFDTKNDQYDTWHFQAMLESDHEVFKAYLSQKQSRNVTTKSLADMLTLTSLPQEIKDLVFLLRHFEKAVRNPLAHLIKPFDEEELHRTTHFSSQAFLENIITLATFSGVIYRREPFYFDDMNAIIKKELSLWRQSIV | not soluble
6 | MGSDKIHHHHHHMSDVSPARALGIDFGTSNSTVGWHRPGVESLIALEDGKITLPSVVFFNIEERRPVYGRLALHEYLEGYEGRLMRSLKSLLGSKLIKHDTSVLGSALPFKDLLGMFIGELKKRAEAAAGREFDQVVLGRPVFFVDEDPAADQEAEDTLAEVARKIGFKDVSFQYEPIAAAFDYESSISREELVLIVDIGGGTSDFTLIRLSPERHLVAERQSDILATGGVHIGGTDFDKQLSLQGVMPLFGYGSRMKSGALMPTSYHLNLATWHTINALYSQKSQLALGSMRYDIEDSFGIDRLFKLIEQRAGHWLAMEVEASKIELTEHDSRHIDLRRVEPELTAELTRTLFEEAIEGLLERVRGSVTELLAKAGVSEGQVDTVFFTGGSSGIPALRNSVSAMLPNARHVEGNIFGSIGSGLAIEARKRYGAA | not soluble
7 | GPGSMSATDASITGAEAAPASPGTSPAATGPASTAAVTAYTVGIDIGSATTRVAVMDPAKLMPTIIRNALGNEATSTVVSFAANEARSFGENAAARQVTKASETIVDLAPWIFGYTSGEQVPKDTAVSLQVVSPATAMTEACVLKSRQLGAQEHLTHPAQVAAFYIKSLLQLLPEKGMIRTSPVCLAVPSAAYAASFEALRQATLLAGVPQEQTIIAHSDEATAVYFHHLQYSGLPAKHDGAAVPVVLIDIGQSCSVASLIMASQPRVEKVDCQTLRMGSEYIDALLCSHVYSELGKKFGAAADPLRGDIKSFRKILRECRKAKEVLSTTDETQVQLEGLSGDIDIIVSVTRAMMEQAALPFLQAVRAMLTAIKEKLPVPSATEDGSQAAAVPPRVEVIGGGWRSVCVMEAIREVFGITRVGVSLDANLSVAEGSAILAEVRQLTIARQQDEEQTAQATTASSVAEAHQVELIGFEVLDANSPINRPLSEAGVRAVTEWIMLEKQMEDSDARIHERLAALNRLDSYILQTLAAVDNCAASSEKKTEMRAYIEEVDAYVRSEGDEASSVELNEKLAAVQAHVTEHFSEIEAYYESVRAEEKRKEEELVKLSKERQEDESDLKSDPQRLRMAQKRREQGQGLFREECWAEAQTRFVQALSILGQLYDTSSEENKTKKREISLSCYLNIASCSVKLGLWKNAVNNCTNALELVPDHPKALFRRGQAYSALKEYEEAVTDLEKAKAVSQDDPVVVAELNKAKAALGAEKAKTKKMFAKMFS | soluble
8 | MAEEEVGNSQRQSEEIEAMAAIYGEEWCVIDENAKIFCIRVTDFMDDPKWTLCLQVMLPSEYPGTAPPSYQLNAPWLKGQERADLSNSLEEIYVHNMGESILYQWVEKIRDALIQKSQITEPDPDVKKKTEEVEVESEEDPILEHPPENPVKTLDLKISEETQPETEELPPVAHGVPITDRRSTFQAHVAPVVCPEQVKLVLAKLYENKKIASATHNIYAYRIFCEDKQTFLQDCEDDGETAAGGRLLHLMEILNVKNVMVVVSRWYGGILLGPDRFKHINNCARNILVEKNFTNTPDESTKNLGKKKVKKDKKKNDH | soluble
9 | ACDYTCGSACYSSSDVSTAQAAGYKLHEDGETVGSNSYPHKYNNYEGFDFSVSSPYYEWPILSSGDVYSGGSPGADRVVFNENNQLAGVITHTGASGNNFVECT | soluble
10 | MTVIALRHLGPAERKSFARHLAGGDFPGKGAWDDGTVVLDRVLDGLGDEAGRALIEGALAKASRMVVVTLGGEAAARWTPEVLGPAFVYLLGEAIDADSPAVALAFLDGPGRPRLFAPRFSVMVPVYNHRDLIGACLDSIAAQSWPLWEAVVVDDGSTDGVATLLTERAAADPRLRWSSQANGGTGAALNACLAMAREEWIAWLSSDDLFAPDKLAAHAALLRRDGLAPAFHHTAVIRRNDAGEEQVVAPLGPLMTGSAGLRRLAMTSVNLIQGISIVVHRDLFAQTAGFDPRNRFTQDYAMWVRLMERTDPVYLPLVTAVTRVGAAQTTARHYQRTRAEAIAAILGALRDFSAGAPDDREARLEAVAALVMLASSPHGFLARYGLQGWYVARAMGLAAEAKVLGATFADVSARLGPWSVGHIHDPQAMGHLAMIESVFREDKAAAPIDPFRILTRMLISPTIPADLAEAITGFLRGDLPQPLEHHHHHH | not soluble
11 | ESYWRSRMIDAVTSDEDKVAPVYKLEEICDLLRSSHVSIVKEFSEFILKRLDNKSPIVKQKALRLIKYAVGKSGSEFRREMQRNSVAVRNLFHYKGHPDPLKGDALNKAVRETAHETISAIFSEENG | soluble
